Assay [1] addresses T1, human common cytokine receptor γ-chain (γc; IL-2Rγ; CD132), recombinant protein (human, UniProt P31785 23-262).
T1 construct: also called human IL-2R subunit CD132
T1 sequence: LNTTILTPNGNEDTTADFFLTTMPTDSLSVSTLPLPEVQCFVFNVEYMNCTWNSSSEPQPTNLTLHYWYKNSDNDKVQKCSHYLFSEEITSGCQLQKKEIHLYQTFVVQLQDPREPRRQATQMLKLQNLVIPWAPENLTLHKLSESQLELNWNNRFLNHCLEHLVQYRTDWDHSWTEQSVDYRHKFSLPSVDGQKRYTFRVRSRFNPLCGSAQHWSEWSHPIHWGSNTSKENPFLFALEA
Kind of assay: P.E. off-rate SPR. Summed up: (§1)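 Immobilised receptor density: ~2500 RU (CM5, amine coupling). Analyte: VHH-containing P.E., 30 uL/min. Read-out: off-rate over 120s.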

For assay [2], the target named is T1, human common cytokine receptor γ-chain …. Description: P.E. binding ELISA. Summed up: (§2)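 Plates were coated overnight at 4° C with human or mouse IL-2R chain protein, and free sites blocked for 1 hour in 4% Marvel in PBS. Periplasmic extracts diluted 1:5 in 1% Marvel/PBS then bound for 1 hour, with specificity assessed from 450 nm absorbance relative to negative controls.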

Assay [3] has as its target T2, cynomolgus monkey IL-2Rγ/CD132 subunit (cynomolgus monkey, UniProt A0A2K5VGJ6 23-262).
T2 construct: also called Cyno IL-2R subunit
T2 sequence: T1 sequence with T14A, A16T, T22S, H141R, T228S
Kind of assay: ELISA, bivalent; EC50 cyno vs human subunit. Summed up: (§3)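 Human and cyno receptor subunits coated at 1 μg/mL in PBS pH 7.4 overnight at 4° C, casein-blocked; test antibodies bound 1 h, detected with anti-human IgG Fc-HRP and TMB, A450 (ref 620 nm). EC50 from four-parameter variable-slope nonlinear fit of dose-response binding curves.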
(In general: In an ELISA, binding on a coated surface is turned into a signal by an enzyme label.)

For assay [4], the target named is T2, cynomolgus monkey IL-2Rγ/CD132 subunit. Description: ELISA, bivalent VHH-hFc. Summed up:
as §3

The target of assay [5] is T1, human common cytokine receptor γ-chain …. Description: ELISA, bivalent VHH-hFc. The method, boiled down:
as §3

Assay [6] addresses T3, mouse IL-2Rγ, recombinant protein (mouse, UniProt P34902 23-263, limits assumed).
T3 sequence (looked up): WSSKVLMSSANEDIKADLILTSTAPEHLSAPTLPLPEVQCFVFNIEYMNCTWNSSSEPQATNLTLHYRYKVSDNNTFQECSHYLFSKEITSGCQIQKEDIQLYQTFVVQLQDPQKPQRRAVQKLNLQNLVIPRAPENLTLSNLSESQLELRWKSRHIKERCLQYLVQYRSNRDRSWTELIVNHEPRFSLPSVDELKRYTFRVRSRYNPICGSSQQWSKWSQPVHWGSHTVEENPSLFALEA
Kind of assay: P.E. off-rate SPR. Summed up:
as §1

In assay [7] the target is T3, mouse IL-2Rγ, recombinant protein. Description: P.E. binding ELISA. Summed up:
as §2

Residue numbers refer to the chain shown, from its start.

B1: 27-MP04G01 VHH (periplasmic extract) (VHH)
VHH: QVQLVESGGGLVQAGGSLTLSCAAPGRTFGTDVVGWFRQAPGKEREFVASISRSGDGIYYDDSVKGRFTISRNNAWNTVNLQMNSLKVEDTAVYYCAAGDGWSTYDYWGQGTQVTVSS
notes: soluble VHH in periplasmic extract
For orientation: koff means the rate constant with which the complex falls apart. As for B1, in assay [1], the koff was found to be 0.00131 s⁻¹. In assay [2], the OD450 nm was 0.362 OD450 nm.

B2: 27-MP04G01 VHH-hFc, monospecific bivalent (Fc fusion)
chain: B1 VHH
notes: IgG1 Fc LALA-PG; not shown: human IgG1 CH2 and CH3 domains (Fc)
What is called EC50 is the midpoint of the concentration-response curve. Regarding B2, the Fold change in assay [3] is 1.1 fold. Further, the values for the concentration giving a half-maximal response (EC50) in assay [4] and in assay [5] were 0.147 nM and 0.131 nM, respectively.

B3: 35-MP07G01 VHH-hFc, monospecific bivalent (Fc fusion)
chain: QVQLQESGGGLVQGGGSLRLSCAASGGIFSSYAMGWFRQAPGKEREFVAAISRSGRSTNYADSVKGRFTISRDNAKSTVYLQMNSLKPEETAVYYCAAGRYYNSAYDPSPGDFGSWGHGTQVTVSS
notes: as for B2
Regarding B3, the binding result in assay [4] and in assay [5] was “no binding” each time.

B4: 36-MP07F02 VHH (periplasmic extract) (VHH)
VHH: QVQLVESGGGLVQAGGSLRLSCAASGRTLSRYAMGWFRQAPGSEREFVAASSWGGDTFYADSVEGRFTFSRDNAKNAVYLQMNSLQPEDTAAYYCAAAPTSFPTTAYSSSNSYAYWGQGTQVTVSS
notes: as for B1
Consider B4, for which the koff in assay [1] stood at 0.00331 s⁻¹. Also, the OD450 nm in assay [2] is 0.896 OD450 nm.

B5: 36-MP07F02 VHH-hFc, monospecific bivalent (Fc fusion)
chain: B4 VHH
notes: as for B2
B5: in assay [3], the Fold change amounted to 1 fold. In addition, the concentration for a half-maximal effect (EC50) in assay [4] turned out to be 0.121 nM; in assay [5], 0.117 nM.

B6: 37-MP07F09 VHH (periplasmic extract) (VHH)
VHH: B4 VHH with S43K, F47Y, A50I, S51D, A77E, A92V, A97G, P103A, A114R
notes: as for B1
For the molecule B6, the koff in assay [6] stood at 0.007 s⁻¹; in assay [1], 0.00126 s⁻¹. In addition, the OD450 nm in assay [7] is 1.49 OD450 nm; in assay [2], 1.81 OD450 nm.

B7: 28-MP04D02 VHH (periplasmic extract) (VHH)
VHH: B4 VHH with S43K, A49T, S51N, F58Y, E64Q, A77T, A92V, P103A, S109G
notes: as for B1
As for B7, the koff turned out to be 0.319 s⁻¹ in assay [6] and 0.0088 s⁻¹ in assay [1]. Besides, the values for the OD450 nm in assay [7] and in assay [2] were 0.054 OD450 nm and 0.782 OD450 nm, respectively.

B8: 37-MP07F09 VHH-hFc, monospecific bivalent (Fc fusion)
chain: B4 VHH with S43K, F47Y, A50I, S51D, A77E, A92V, A97G, P103A, A114R
notes: as for B2
Molecule B8 yielded a Fold change in assay [3] of 1 fold. In addition, the EC50 in assay [4] was 0.141 nM; in assay [5] it was 0.137 nM.

B9: 34-MP04A12 VHH (periplasmic extract) (VHH)
VHH: B4 VHH with G16S, Y32L, S43K, A50V, S51N, F69Y, N76S, A92V, P103A, T120A
notes: as for B1
Take B9: the dissociation rate constant (koff) worked out at 0.00809 s⁻¹ in assay [6] and 0.000333 s⁻¹ in assay [1]. The OD450 nm in assay [7] is 3.6 OD450 nm; in assay [2] it was 1.3 OD450 nm.

B10: 38-MP07A11 VHH-hFc, monospecific bivalent (Fc fusion)
chain: QVQLVESGGGLVQAGGSLRLSCAASGRSLSRDAMGWFRQAPGKEREFVAVMSWGGDTFYTDSVEGRFTFSRDNAKNAVYLEMNDLQPEDTAVYYCAAAPTSFATTAYSSSNSYSYWGRGTQVTVSS
notes: as for B2
Consider B10, for which the Fold change in assay [3] stood at 1.2 fold. The 50% effective concentration (EC50) in assay [4] stood at 0.133 nM; in assay [5], 0.113 nM.

B11: 38-MP07A11 VHH (periplasmic extract) (VHH)
VHH: B10 chain
notes: as for B1
Consider B11, for which the koff in assay [6] turned out to be 0.0149 s⁻¹; in assay [1], 0.00235 s⁻¹. In addition, the OD450 nm in assay [7] came out at 0.173 OD450 nm; in assay [2], 1.31 OD450 nm.

B12: 34-MP04A12 VHH-hFc, monospecific bivalent (Fc fusion)
chain: B4 VHH with G16S, Y32L, S43K, A50V, S51N, F69Y, N76S, A92V, P103A, T120A
notes: as for B2
For B12, the Fold change in assay [3] was 1 fold. Moreover, the EC50 in assay [4] came out at 0.112 nM; in assay [5], 0.117 nM.

B13: 28-MP04D02 VHH-hFc, monospecific bivalent (Fc fusion)
chain: B4 VHH with S43K, A49T, S51N, F58Y, E64Q, A77T, A92V, P103A, S109G
notes: IgG1 Fc LALA-PG; also called clone 28; not shown: human IgG1 CH2 and CH3 domains (Fc)
B13: in assay [3], the Fold change was 1.1 fold. Moreover, the concentration for a half-maximal effect (EC50) in assay [4] was determined as 0.113 nM; in assay [5] it was 0.107 nM.

B14: 32-MP04A08 VHH (periplasmic extract) (VHH)
VHH: QVQLVESGGGLVQAGGSLRLSCAASGRTFGSTAVGWFRQVPGKEREFVSAINRSGSATTYADSVKGRFTISRDNAKNTVYLQMNSLTPEDTGVYYCAADSLPYGRPYYFQRSAGEYDYWGQGTQVTVSS
notes: as for B1
Turning to B14, the koff in assay [1] amounted to 0.0616 s⁻¹. Moreover, the OD450 nm in assay [2] stood at 0.407 OD450 nm.

B15: 32-MP04A08 VHH-hFc, monospecific bivalent (Fc fusion)
chain: B14 VHH
notes: as for B2
On to B15, for which the binding result in assay [4] is listed as “no binding”. Moreover, the concentration for a half-maximal effect (EC50) in assay [5] was 0.14 nM.

B16: 31-MP04E03 VHH (periplasmic extract) (VHH)
VHH: QVQLVESGGGLVQAGGSLRLSCTGYGGAFTGYALGWFRQAPGKEREFVARINWSGSFTYYASSVKGRFTISRDNAKNTMYLQMNNLKPEDTAVYYCAADNPSTLATDYDNWGQGTQVTVSS
notes: as for B1
On to B16, for which the koff in assay [6] came to 0.283 s⁻¹. The OD450 nm in assay [7] was 0.495 OD450 nm.

B17: 29-MP04H02 VHH (periplasmic extract) (VHH)
VHH: QVQLVESGGGLVQAGGSLRLACVASGLTFDNYYMGWFRQAPGKEREFVAGIIWNGDHTAYADSIKGRFTISRDNAKNTAYLRMNSLKPEDTAVYYCAATFWIERATTPDIGQYAYWGQGTQVTVSS
notes: as for B1
B17: in assay [1], the dissociation rate constant (koff) worked out at 0.00625 s⁻¹. In addition, the OD450 nm in assay [2] turned out to be 0.157 OD450 nm.

B18: 29-MP04H02 VHH-hFc, monospecific bivalent (Fc fusion)
chain: B17 VHH
notes: as for B2
Molecule B18 gave a Fold change in assay [3] of 1.4 fold. Moreover, the results for the 50% effective concentration (EC50) in assay [4] and in assay [5] were 0.26 nM and 0.179 nM, respectively.

Values taken from US20240409645A1 (DUALYX, published 2024).
